Data reported in the RNAGym collection of RNA variant scans (doi:10.1021/acssynbio.7b00057).

B1: Pistol ribozyme (parent)
chain: GGGUCGUUGUUCCAUAAUCGCGUGGAUAUGGCACGCAAGUUUCUACCGGGCACCGUAAAUGUCCGACUGGAGCCGUUCGGGCGGCUAUAAACAGACCUCAGGCCCGAAGCGUGGCGGCACCUGCCGCCGGUGGUAAAAAAGAUCGGAAGAGCACACGUCU

Variants of: B1
Test: aptazyme ON/OFF ratio, guanine; higher = stronger switching; co-transcriptional cleavage with and without guanine

| Variant | aptazyme ON/OFF ratio |
| --- | --- |
| U8A G9U U10C C12A C13A | 1.09 |
| U8A G9U U10C C12A C13U | 1.05 |
| U8A G9U U10C C12A C13G | 1.06 |
| U8A G9C U11G C12A | 1.06 |
| U8A G9C U11G C12U | 1.45 |
| U8A G9C U11G C12G | 1.16 |
| U8A G9U U10A C12U | 1.4 |
| U8A G9U U10A C12G | 1.31 |
| U8A G9U U10A C12A | 1.34 |
| U8A G9U C12G C13G | 1.23 |
| U8A G9U C12G C13A | 1.21 |
| U8A G9U C12G C13U | 1.26 |
| U8A G9C U11C C13U | 1.06 |
| U8A G9C U11C C13G | 1.04 |
| U8A G9C U11C C13A | 1.06 |
| U8A G9U U10A U11G C12G C13U | 1.31 |
| U8A G9U U10A U11G C12G C13A | 1.1 |
| U8A G9U U10A U11G C12G C13G | 1.24 |
| U8A G9C U11C C12U C13G | 1.04 |
| U8A G9C U11C C12U C13U | 1.01 |
| U8A G9C U11C C12U C13A | 1.05 |
| U8A G9C U10G U11G C12G C13G | 1.23 |
| U8A G9C U10G U11G C12G C13U | 1.31 |
| U8A G9C U10G U11G C12G C13A | 1.14 |

| Variant | aptazyme ON/OFF ratio |
| --- | --- |
| U8A G9C U11A C12A C13A | 1.22 |
| U8A G9C U11A C12A C13U | 1.21 |
| U8A G9C U11A C12A C13G | 1.18 |
| U8A G9U U10A U11C C12A C13G | 1.2 |
| U8A G9U U10A U11C C12A C13A | 1.23 |
| U8A G9U U10A U11C C12A C13U | 1.25 |
| U8A G9U U10C U11A | 1.34 |
| U8A G9U U10A U11A C13U | 1.28 |
| U8A G9U U10A U11A C13A | 1.29 |
| U8A G9U U10A U11A C13G | 1.07 |
| U8A G9C U11G C12U C13A | 1.31 |
| U8A G9C U11G C12U C13G | 1.27 |
| U8A G9C U11G C12U C13U | 1.08 |
| U8A G9C U10G U11G C12U C13U | 1.11 |
| U8A G9C U10G U11G C12U C13A | 1.08 |
| U8A G9C U10G U11G C12U C13G | 1.08 |
| U8A G9C U11A C13G | 1.06 |
| U8A G9C U11A C13U | 1.16 |
| U8A G9C U11A C13A | 1.16 |
| U8A G9U U10C C12U C13A | 1.08 |
| U8A G9U U10C C12U C13G | 1.07 |
| U8A G9U U10C C12U C13U | 1.18 |
| U8A G9U U10C U11A C12A C13A | 1.14 |
| U8A G9U U10C U11A C12A C13G | 1.12 |

| Variant | aptazyme ON/OFF ratio |
| --- | --- |
| U8A G9U U10C U11A C12A C13U | 1.17 |
| U8A G9C U11A C12G C13U | 1.14 |
| U8A G9C U11A C12G C13A | 1.12 |
| U8A G9C U11A C12G C13G | 1.17 |
| U8A G9C U11G C12G C13A | 1.18 |
| U8A G9C U11G C12G C13U | 1.07 |
| U8A G9C U11G C12G C13G | 1.14 |
| U8A G9U U10A U11A C12A C13A | 1.16 |
| U8A G9U U10A U11A C12A C13G | 1.23 |
| U8A G9U U10A U11A C12A C13U | 1.24 |
| U8A G9U U10A U11G | 1.42 |
| U8A G9U U10A U11C | 1.03 |
| U8A G9U U10A U11A | 1.67 |
| U8A G9U U10A U11A C12U C13A | 1.21 |
| U8A G9U U10A U11A C12U C13U | 1.53 |
| U8A G9U U10A U11A C12U C13G | 1.36 |
| U8A G9U C12U | 1.46 |
| U8A G9U C12G | 1.18 |
| U8A G9U C12A | 1.22 |
| U8A G9U C12A C13U | 1.15 |
| U8A G9U C12A C13G | 1.16 |
| U8A G9U C12A C13A | 1.52 |
| U8A G9C U11A | 1.21 |
| U8A G9C U11C | 1.03 |

| Variant | aptazyme ON/OFF ratio |
| --- | --- |
| U8A G9C U11G | 1.25 |
| U8A G9U U10A U11G C12A C13A | 1.01 |
| U8A G9U U10A U11G C12A C13U | 1.21 |
| U8A G9U U10A U11G C12A C13G | 1.19 |
| U8A G9C U11G C12A C13A | 1.1 |
| U8A G9C U11G C12A C13G | 1.25 |
| U8A G9C U11G C12A C13U | 1.2 |
| U8A G9C U11A C12U | 1.22 |
| U8A G9C U11A C12G | 1.22 |
| U8A G9C U11A C12A | 1.19 |
| U8A G9U U10C U11A C12A | 1.11 |
| U8A G9U U10C U11A C12U | 1.18 |
| U8A G9U U10C U11A C12G | 1.06 |
| U8A G9U U10A U11G C13U | 1.25 |
| U8A G9U U10A U11G C13G | 1.08 |
| U8A G9U U10A U11G C13A | 1.23 |
| U8A G9U C13G | 1.09 |
| U8A G9U C13A | 1.24 |
| U8A G9U C13U | 1.4 |
| U8A G9U | 2.15 |
| U8A G9C U10G U11G C13A | 1.23 |
| U8A G9C U10G U11G C13G | 1.16 |
| U8A G9C U10G U11G C13U | 1.23 |
| U8A G9C U10G U11G C12A C13G | 1.14 |

| Variant | aptazyme ON/OFF ratio |
| --- | --- |
| U8A G9C U10G U11G C12A C13U | 1.21 |
| U8A G9U U10A C12U C13G | 1.18 |
| U8A G9U U10A C12U C13A | 1.25 |
| U8A G9U U10A C12U C13U | 1.13 |
| U8A G9C U11C C12U | 1.09 |
| U8A G9C U11C C12G | 1.07 |
| U8A G9C U11C C12A | 1.08 |
| U8A G9U U10A U11G C12U C13A | 1.27 |
| U8A G9U U10A U11G C12U C13U | 1.4 |
| U8A G9U U10A U11G C12U C13G | 1.17 |
| U8A G9U U10C C12G C13U | 1.25 |
| U8A G9U U10C C12G C13G | 1.18 |
| U8A G9U U10C C12G C13A | 1.15 |
| U8A G9U U10C U11A C12G C13G | 1.12 |
| U8A G9U U10C U11A C12G C13U | 1.14 |
| U8A G9U U10C U11A C12G C13A | 1.15 |
| U8A G9C U10G U11G C12G | 1.24 |
| U8A G9C U10G U11G C12U | 1.23 |
| U8A G9U U10A C12A C13G | 1.12 |
| U8A G9U U10A C12A C13U | 1.36 |
| U8A G9U U10A C12A C13A | 1.22 |
| U8A G9U U10A | 1.31 |
| U8A G9U U10C | 1.88 |
| U8A G9U U10A U11C C13G | 1.08 |

| Variant | aptazyme ON/OFF ratio |
| --- | --- |
| U8A G9U U10A U11C C13U | 1.02 |
| U8A G9U U10A U11C C13A | 1.04 |
| U8A G9U U10A U11C C12U C13A | 1.25 |
| U8A G9U U10A U11C C12U C13G | 1.22 |
| U8A G9U U10A U11C C12U C13U | 1.18 |
| U8A G9U U10A U11C C12A | 1.07 |
| U8A G9U U10A U11C C12G | 1.09 |
| U8A G9U U10A U11C C12U | 1.11 |
| U8A G9U U10A C12G C13A | 1.34 |
| U8A G9U U10A C12G C13G | 1.28 |
| U8A G9U U10A C12G C13U | 1.33 |
| U8A G9U U10A U11A C12G | 1.25 |
| U8A G9U U10A U11A C12A | 1.36 |
| U8A G9U U10A U11A C12U | 1.32 |
| U8A G9C U11A C12U C13G | 1.15 |
| U8A G9C U11A C12U C13U | 1.15 |
| U8A G9C U11A C12U C13A | 1.14 |
| U8A G9U U10C C13U | 1.15 |
| U8A G9U U10C C13G | 1.04 |
| U8A G9U U10C C13A | 1.08 |
| U8A G9U U10A U11G C12G | 1.24 |
| U8A G9U U10A U11G C12U | 1.37 |
| U8A G9U U10A U11G C12A | 1.07 |
| U8A G9U U10A U11C C12G C13G | 1.12 |

| Variant | aptazyme ON/OFF ratio |
| --- | --- |
| U8A G9U U10A U11C C12G C13A | 1.14 |
| U8A G9U U10A U11C C12G C13U | 1.34 |
| U8A G9U U10C C12G | 1.04 |
| U8A G9U U10C C12U | 1.08 |
| U8A G9U U10C C12A | 1.04 |
| U8A G9U C12U C13U | 1.36 |
| U8A G9U C12U C13G | 1.25 |
| U8A G9U C12U C13A | 1.36 |
| U8A G9C U11C C12G C13G | 1.05 |
| U8A G9C U11C C12G C13U | 1.06 |
| U8A G9C U11C C12G C13A | 1.07 |
| U8A G9U U10A C13A | 1.26 |
| U8A G9U U10A C13G | 1.1 |
| U8A G9U U10A C13U | 1.2 |
| U8A G9C U11G C13U | 1.17 |
| U8A G9C U11G C13G | 1.04 |
| U8A G9C U11G C13A | 1.15 |
| U8A G9C U11C C12A C13U | 1.06 |
| U8A G9C U11C C12A C13A | 1.07 |
| U8A G9C U11C C12A C13G | 1.05 |
| U8A G9U U10A U11A C12G C13A | 1.27 |
| U8A G9U U10A U11A C12G C13U | 1.38 |
| U8A G9U U10A U11A C12G C13G | 1.32 |
